Laboratory results reported in the RNAGym collection of RNA variant scans (doi:10.7554/elife.80360).

B1: Hairpin Ribozyme (parent)
chain: GUCCUCUUUCACGUGCGCGUGAAAGAGAGAAGUGAACCAGAGAAACACACGUUGUGGUAUAUUACCUGGUA

Variants of: B1
Assay: self-cleavage, relative activity (ratio to wild type); higher = more cleavage; co-transcriptional

Variant | self-cleavage
GUCCUCUUUCACGUUCGCGUGAAAGAGAGAAGUGAACCAGAGAAACACAAGUUGUGGUAUAUUACCUGGUA [G15U C50A] | 0.274
GUCCUCUUUCACGUUCGCGUGAAAGAGAGAAGUGAACCAGAGAAACACACGUUGUUGUAUAUUACCUGGUA [G15U G56U] | 0.0866
GUCCUCUUUCACGUUCGCGUGAAAGAGAGAAGUGAACCAGAGAAACACACGUUGAGGUAUAUUACCUGGUA [G15U U55A] | 0.304
GUCCUCUUUCACGUUCGCGUGAAAGAGAGAAGUGAACCAGAGAAACAUACGUUGUGGUAUAUUACCUGGUA [G15U C48U] | 0.149
GUCCUCUUUCACGUUCGCGUGAAAGAGAGAAGUGAACCAGAGAAACAGACGUUGUGGUAUAUUACCUGGUA [G15U C48G] | 0.213
GUCCUCUUUCACGUUCGCGUGAAAGAGAGAAGUGAACCAGAGAAACAAACGUUGUGGUAUAUUACCUGGUA [G15U C48A] | 0.226
GUCCUCUUUCACGUUCGCGUGAAAAAGAGAAGUGAACCAGAGAAACACACGUUGUGGUAUAUUACCUGGUA [G15U G25A] | 0.703
GUCCUCUUUCACGUUCGCGUGAAAGAGAGAAGUGAACCAGAGAAACACACGUCGUGGUAUAUUACCUGGUA [G15U U53C] | 1.04
GUCCUCUUUCACGUUCGCGUGAAAGAGAGAAGUGAACCAGAGAAACACACGUAGUGGUAUAUUACCUGGUA [G15U U53A] | 1.16
GUCCUCUUUCACGUUCGCGUGAAAGAGAGAAGUGAACCAGAGAAACACACGUUGUGGUAUAUUACCUGGAA [G15U U70A] | 0.96
GUCCUCUUUCACGUUCGCGUGAAAGAGAGAAGUGAACCAGAGAAACACACGUUGUGGUAUAUAACCUGGUA [G15U U63A] | 0.164
GUCCUCUUUCACGUGAGCGUGAAAGAGAGACGUGAACCAGAGAAACACACGUUGUGGUAUAUUACCUGGUA [C16A A31C] | 0.0433
GUCCUCUUUCACGUGAGCGUGAGAGAGAGAAGUGAACCAGAGAAACACACGUUGUGGUAUAUUACCUGGUA [C16A A23G] | 0.783
GUCCUCUUUCACGUUCGCGUGAAAGAGAGAAGUGAACCAAAGAAACACACGUUGUGGUAUAUUACCUGGUA [G15U G40A] | 0.335
GUCCUCUUUCACGUUCGCGUGAAAGAGAGAAGUGAACCAUAGAAACACACGUUGUGGUAUAUUACCUGGUA [G15U G40U] | 0.206
GUCCUCUUUCACGUGAGCGUGAAAGAGAGAAGUGAACCAGAGAGACACACGUUGUGGUAUAUUACCUGGUA [C16A A44G] | 0.153
GUCCUCUUUCACGUUCGCGUGAAAGAGAGAAGCGAACCAGAGAAACACACGUUGUGGUAUAUUACCUGGUA [G15U U33C] | 0.178
GUCCUCUUUCACGUUCGCGUGAAAGAGAGAAGUGAACCAGAAAAACACACGUUGUGGUAUAUUACCUGGUA [G15U G42A] | 0.207
GUCCUCUUUCACGUGAGGGUGAAAGAGAGAAGUGAACCAGAGAAACACACGUUGUGGUAUAUUACCUGGUA [C16A C18G] | 0.841
GUCCUCUUUCACGUGAGUGUGAAAGAGAGAAGUGAACCAGAGAAACACACGUUGUGGUAUAUUACCUGGUA [C16A C18U] | 0.98
GUCCUCUUUCACGUGAGCGUGAAAGAGAGAAGUGAGCCAGAGAAACACACGUUGUGGUAUAUUACCUGGUA [C16A A36G] | 1.1
GUCCUCUUUCACGUGAGCGUGAAAGAGAGAAGUGAUCCAGAGAAACACACGUUGUGGUAUAUUACCUGGUA [C16A A36U] | 0.554
GUCCUCUUUCACGUUCGCGUGAAAGAGAGAAGUGAACCAGAGAAACACACGCUGUGGUAUAUUACCUGGUA [G15U U52C] | 0.911
GUCCUCUUUCACGUUCGCGCGAAAGAGAGAAGUGAACCAGAGAAACACACGUUGUGGUAUAUUACCUGGUA [G15U U20C] | 1
GUCCUCUUUCACGUUCGCGUGAAAGAGAGAAGUGAACCAGAGAAACACACGUUGUGGUAUAUUACGUGGUA [G15U C66G] | 0.183
GUCCUCUUUCACGUGAGCGUGAAAGAGAGAAGUGAACCAGAGAAACACACGUUGUGGUGUAUUACCUGGUA [C16A A59G] | 0.085

Variant | self-cleavage
GUCCUCUUUCACGUUCGCGUGAAAGAGAGAAGUGAACCAGAGAAACACACGUUGUGGUAUAUUACCCGGUA [G15U U67C] | 0.267
GUCCUCUUUCACGUGAGCGUGAAAGAGAGGAGUGAACCAGAGAAACACACGUUGUGGUAUAUUACCUGGUA [C16A A30G] | 0.11
GUCCUCUUUCACGUGAGCGUGAAAGAGAGAAGUGAACCCGAGAAACACACGUUGUGGUAUAUUACCUGGUA [C16A A39C] | 0.484
GUCCUCUUUCACGUGAGCGUGCAAGAGAGAAGUGAACCAGAGAAACACACGUUGUGGUAUAUUACCUGGUA [C16A A22C] | 0.713
GUCCUCUUUCACGUGAGCGUGAAAGUGAGAAGUGAACCAGAGAAACACACGUUGUGGUAUAUUACCUGGUA [C16A A26U] | 0.607
GUCCUCUUUCACGUGAGCGUGAAUGAGAGAAGUGAACCAGAGAAACACACGUUGUGGUAUAUUACCUGGUA [C16A A24U] | 0.632
GUCCUCUUUCACGUUCGCGUGAAAGAGAGAAGUGAACCAGAGAAACACACGUUGUGGUGUAUUACCUGGUA [G15U A59G] | 0.161
GUCCUCUUUCACGUUCGCGUGAAAGAGAGAAGUUAACCAGAGAAACACACGUUGUGGUAUAUUACCUGGUA [G15U G34U] | 1.46
GUCCUCUUUCACGUUCGCGUGAAAGAGAGAAGUGAACCAGAGAAACACACGUUGUGGGAUAUUACCUGGUA [G15U U58G] | 0.711
GUCCUCUUUCACGUUCGCGUGAAAGAGAGAAGUGAACCAGAGAAACACACAUUGUGGUAUAUUACCUGGUA [G15U G51A] | 0.948
GUCCUCUUUCACGUUCGCGUGAAAGAGAGAAGUGAACCAGAGAAACACACCUUGUGGUAUAUUACCUGGUA [G15U G51C] | 1.08
GUCCUCUUUCACGUUCGCGUGAAAGAGAGAAGUGAACCAGAGAAACACACUUUGUGGUAUAUUACCUGGUA [G15U G51U] | 1.22
GUCCUCUUUCACGUUCGCGUGAAAGACAGAAGUGAACCAGAGAAACACACGUUGUGGUAUAUUACCUGGUA [G15U G27C] | 0.278
GUCCUCUUUCACGUUCGCGUGAAAGAAAGAAGUGAACCAGAGAAACACACGUUGUGGUAUAUUACCUGGUA [G15U G27A] | 0.432
GUCCUCUUUCACGUUCGCGUGAAAGAGAGAAGUGAACCAGAGAAACGCACGUUGUGGUAUAUUACCUGGUA [G15U A47G] | 0.116
GUCCUCUUUCACGUUCGCGUGAAAGAGAGAAGUGAACCAGAGAAACACACGUUGUGGUAUAUUACCUGGUU [G15U A71U] | 0.923
GUCCUCUUUCACGUUCGCGUGAAAGAGAGAAGUGAACCAGAGAAACACACGUUGUGGUAUAUUACCUGGUG [G15U A71G] | 1.12
GUCCUCUUUCACGUUCGCGUGAAAGAGAGAAGUGAACCAGAGAAACACACGUUGUGUUAUAUUACCUGGUA [G15U G57U] | 0.296
GUCCUCUUUCACGUUCGCGUGAAAGAGAGAAGUGAACCAGAGAAACACACGUUGUGAUAUAUUACCUGGUA [G15U G57A] | 0.153
GUCCUCUUUCACGUGAGCGUGAAAGAGAGAAGUGAACCAGAGAAACACACGUUGUGGUAUAUUCCCUGGUA [C16A A64C] | 0.133
GUCCUCUUUCACGUGAGCGUGAAAGAGAGAAGUGAACCAGAGAAACUCACGUUGUGGUAUAUUACCUGGUA [C16A A47U] | 0.0731
GUCCUCUUUCACGUGAGCGUGAAAGAGAGAAGUGAACCAGAGAAACCCACGUUGUGGUAUAUUACCUGGUA [C16A A47C] | 0.365
GUCCUCUUUCACGUUCGGGUGAAAGAGAGAAGUGAACCAGAGAAACACACGUUGUGGUAUAUUACCUGGUA [G15U C18G] | 1.02
GUCCUCUUUCACGUUCGCUUGAAAGAGAGAAGUGAACCAGAGAAACACACGUUGUGGUAUAUUACCUGGUA [G15U G19U] | 0.853
GUCCUCUUUCACGUGAGCGUGAAAGAGAGAAGUGAACCAGCGAAACACACGUUGUGGUAUAUUACCUGGUA [C16A A41C] | 1.18
GUCCUCUUUCACGUUCGCGUGAAAGAGAAAAGUGAACCAGAGAAACACACGUUGUGGUAUAUUACCUGGUA [G15U G29A] | 0.0502

Variant | self-cleavage
GUCCUCUUUCACGUUCGCGUGAAAGAGAGAAGUGAACCAGAGAAACACACGUUGUGGUAUAUUACCUAGUA [G15U G68A] | 0.387
GUCCUCUUUCACGUUCGCGUGAAAGAGAGAAGUGAACCAGAGAAACACACGUUGUGGUAUAUUACCUUGUA [G15U G68U] | 0.329
GUCCUCUUUCACGUUCGCGUGAAAGAGAGAAGUGAACCAGAGAAACACACGUUGUGGUAUAUUCCCUGGUA [G15U A64C] | 0.16
GUCCUCUUUCACGUUCGCGUGAAAGAGAGAAGUGAACCAGAGAAACACACGUUGUGGUAUAUUGCCUGGUA [G15U A64G] | 0.657
GUCCUCUUUCACGUUCGCGUGAAAGAGAGAAGUGAACCAGAGAAACACACGUUGUGGUAUCUUACCUGGUA [G15U A61C] | 0.261
GUCCUCUUUCACGUUCGCGUGAAAGAGAGAAGUGAACCAGAGAAACACACGUUGUGGUAUAUUAGCUGGUA [G15U C65G] | 0.244
GUCCUCUUUCACGUUCGCGUGAAAGAGAGAAGUGAAUCAGAGAAACACACGUUGUGGUAUAUUACCUGGUA [G15U C37U] | 0.784
GUCCUCUUUCACGUUCGCGUGAAAGAGAGAAGUGAAGCAGAGAAACACACGUUGUGGUAUAUUACCUGGUA [G15U C37G] | 0.339
GUCCUCUUUCACGUUCGCGUGAAAGAGAGAAGUGAAACAGAGAAACACACGUUGUGGUAUAUUACCUGGUA [G15U C37A] | 0.386
GUCCUCUUUCACGUGAGCGUGAAAGAGAGAAGUGAACCAGAGAAACACACGUUGUGGUAUCUUACCUGGUA [C16A A61C] | 0.359
GUCCUCUUUCACGUGAGCGUGAAAGAGAGAAGUGAACCAGAGAAACACACGUUGUGGUAUGUUACCUGGUA [C16A A61G] | 0.203
GUCCUCUUUCACGUGAGCGUGAAAGAGAGAAGUGAACCAGAGUAACACACGUUGUGGUAUAUUACCUGGUA [C16A A43U] | 0.0656
GUCCUCUUUCACGUUCGCGUGAAAGAGAGAAGUGAACCAGAGAAACACUCGUUGUGGUAUAUUACCUGGUA [G15U A49U] | 0.0651
GUCCUCUUUCACGUUCGCGUGAAAGAGAGAAGUGAACCAGAGAAACACCCGUUGUGGUAUAUUACCUGGUA [G15U A49C] | 0.0683
GUCCUCUUUCACGUUCGCGUGAAAGAGAGAAGUGAACCAGAGAAAUACACGUUGUGGUAUAUUACCUGGUA [G15U C46U] | 0.187
GUCCUCUUUCACGUUCGCGUGAAAGAGAGAACUGAACCAGAGAAACACACGUUGUGGUAUAUUACCUGGUA [G15U G32C] | 0.122
GUCCUCUUUCACGUGAGCGUGAAAGAGAGAAGUGAACCAGAGAAGCACACGUUGUGGUAUAUUACCUGGUA [C16A A45G] | 0.115
GUCCUCUUUCACGUGAGCGUGAAAGAGAGAAGUGAACCAGAGAACCACACGUUGUGGUAUAUUACCUGGUA [C16A A45C] | 0.123
GUCCUCUUUCACGUUCGCGUGAAAGAGAGAAGUGAACCAGAGGAACACACGUUGUGGUAUAUUACCUGGUA [G15U A43G] | 0.151
GUCCUCUUUCACGUUCGCGUGAAAGAGAGAAGUGAACCAGAGUAACACACGUUGUGGUAUAUUACCUGGUA [G15U A43U] | 0.104
GUCCUCUUUCACGUUCGCGUGAAAGAGAGAAGUGAACCAGAGAAACACACGUUGUGGUAUAUUACCUGAUA [G15U G69A] | 0.448
GUCCUCUUUCACGUUCGCGUGAAAGAGAGAAGUGAACCAGAGAAACACACGUUGUGGUAUAUUACCUGCUA [G15U G69C] | 0.434
GUCCUCUUUCACGUUCCCGUGAAAGAGAGAAGUGAACCAGAGAAACACACGUUGUGGUAUAUUACCUGGUA [G15U G17C] | 0.881
GUCCUCUUUCACGUUAGCGUGAAAGAGAGAAGUGAACCAGAGAAACACACGUUGUGGUAUAUUACCUGGUA [G15U C16A] | 1.11
